To fix the notation:
B1: Type-1 angiotensin II receptor (Homo sapiens), P30556 (parent)
chain: MILNSSTEDGIKRIQDDCPKAGRHNYIFVMIPTLYSIIFVVGIFGNSLVVIVIYFYMKLKTVASVFLLNLALADLCFLLTLPLWAVYTAMEYRWPFGNYLCKIASASVSFNLYASVFLLTCLSIDRYLAIVHPMKSRLRRTMLVAKVTCIIIWLLAGLASLPAIIHRNVFFIENTNITVCAFHYESQNSTLPIGLGLTKNILGFLFPFLIILTSYTLIWKALKKAYEIQKNKPRNDDIFKIIMAIVLFFFFSWIPHQIFTFLDVLIQLGIIRDCRIADIVDTAMPITICIAYFNNCLNPLFYGFLGKKFKRYFLQLLKYIPPKAKSHSNLSTKMSTLSYRPSDNVSSSTKKPAPCFEVE

In one experiment the parent is B1. The note with it: with arrb1_human ARRB1, P49407.
Sequence of arrb1_human ARRB1, P49407 (P49407 whole entry): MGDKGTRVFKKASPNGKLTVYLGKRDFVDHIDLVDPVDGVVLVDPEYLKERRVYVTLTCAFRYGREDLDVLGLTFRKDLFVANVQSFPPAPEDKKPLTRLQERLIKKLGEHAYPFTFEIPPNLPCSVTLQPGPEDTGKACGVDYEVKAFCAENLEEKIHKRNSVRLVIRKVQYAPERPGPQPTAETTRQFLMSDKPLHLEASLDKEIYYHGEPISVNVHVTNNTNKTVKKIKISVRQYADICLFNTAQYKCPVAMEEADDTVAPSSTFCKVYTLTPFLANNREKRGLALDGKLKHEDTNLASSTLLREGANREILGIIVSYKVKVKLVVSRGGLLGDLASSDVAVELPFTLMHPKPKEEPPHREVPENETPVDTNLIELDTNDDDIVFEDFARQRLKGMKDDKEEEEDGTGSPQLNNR
On to N111G, for which the “effect of a mutation on the interaction” value was “decreasing interaction”.

In a further experiment the parent is B1. The settings on record: with gnaq_human GNAQ.
Regarding N111G, the “effect of a mutation on the interaction” value is “increasing interaction”.
